Results on 6 molecules are retold here after US8343503B2, “Contiguous overlapping peptides for treatment of birch pollen allergy” (Anergis S.A., priority 2009, dated 2013).

Series [1] deals with birch pollen allergic volunteers. As to conditions: human, in vivo.
Description: (§1) The allergenic response of the peptides was evaluated in vivo by SPT with each of the 5 peptides (AllerT1, AllerT2, AllerT3, AllerT4 and AllerT5) and with the 2 sets (AllerT1-3 and AllerT4-5) on all patients. For each peptide, a 20 μl drop was applied on the forearm at 3 different concentrations (10, 1 and 0.1 μM). […] The weal diameter was evaluated by taking the maximal diameter. SPT was considered positive when the weal diameter was 4 mm or more with an erythema (Hoffmann, A. et al., J Allergy Clin Immunol, 99(2):227-32 (1997). Reactions resulting in a weal diameter below 4 mm, while exceeding 2 mm, were also recorded and classified as “dubious”.
The next series relates to Bet v 1 specific IgE. Nature of the series: Competition ELISA: IgE binding of COPs compared to r Bet v 1. Also noted: species or system human. As to conditions: for competition with Bet v 1 for IgE binding / residual IgE binding: sera from three allergic patients (data not shown); for competition for IgE binding to coated r Bet v 1: serial dilutions starting at 10 μM pre-incubated with serum of birch pollen allergic subjects. The method, then: Recombinant Bet v 1 at 0.5 μg/ml (r Bet v 1 obtained from Biomay, Austria) was coated overnight on 96-well Nunc Maxisorp® immunoplates (Life Technologies, Basel, Switzerland). After blocking with 1% BSA, ten-fold dilutions of patient serum were added. […] The sera of three allergic patients were selected for high IgE level and clear signal over background and used to test for competition with the peptides. Serial dilutions of each COP, namely AllerT1, AllerT2, AllerT3, AllerT4, AllerT5, AllerT6, AllerT7 and AllerT8, or mixtures of AllerT1-3, AllerT4-5 and AllerT6-8, starting at 10 μM, were pre-incubated with the three selected sera overnight at 4° C. Sera were then incubated on r Bet v 1 coated 96-well plates and residual IgE binding was determined as described above. r Bet v 1 dilutions were used as control for inhibition, whereas BSA was used as control for possible non-specific inhibition.

Series [2] relates to birch pollen allergic volunteers. Nature of the series: Skin prick tests (SPT) of allergic patients. Particulars: for Positive skin reactions (subjects) / Reactivity lower than defined threshold (dubious) (subjects): 20 volunteers.
Description: as §1
Series [3] concerns basophils (IgE-positive cells) in blood from a birch pollen allergic donor. Description: Basophil degranulation test (Basotest). The class given is cell-based, human. As to conditions: blood of birch pollen allergic donor; r Bet v 1 0.0025-25 nano-molar, COPs starting 10 fold higher; FIG. 4. The method, then: Basotest® (ORPEGEN Pharma Heidelberg, Germany) was used for the quantitative determination of in vitro basophile degranulation. Heparinized blood (100 μl) from a birch pollen allergic donor was first incubated with a stimulation buffer for 20 min at 37° C., and then with or without chemotactic peptide formylmethionylleucylphenylalanine (fMLP) as positive and negative controls respectively. Aliquots of blood were incubated in parallel with 100 μl allergen solution diluted in a saline solution for 20 min at 37° C. A dose response curve was performed with 25, 2.5, 0.25, 0.025 and 0.0025 nano-molar r Bet v 1 as well as starting 10 fold higher with AllerT mixes (AllerT1-T3, AllerT4-5 and AllerT6-8). The activation process was stopped by incubating the blood samples at 4° C. for 10 min. The samples were then incubated for 20 min at +4° C. with 20 μl of phycoerythrin (PE)-conjugated anti-IgE and fluorescein isothyocyanate (FITC)-conjugated anti-gp53 (CD63). Erythrocytes were subsequently removed by the addition of 2 ml of lysing solution (Becton-Dickinson). Cells were washed twice with PBS solution and resuspended in 200 μl of PBS solution and analyzed within 1 h by cytofluorimetry (FASCalibur, BectonDickinson). The basophile population was gated on the PE anti-IgE positive cells and the expression of gp53 (CD63) was analyzed on this population. […]

[4] abbreviates: dilution 1:1, weal 4 mm or more with erythema.

Where two headings read alike, the source gives them in different places. No end group written: not given here.

For “VATPDGGSILKISNKYHTKGDHEVKAEQVKASKEMGETLLRAVESYLLAHSDAYN [AllerT3]”, the “Positive skin reactions (subjects)” value in series [1] was 0.
The same measure, in the same setting: for `CC[C@H](C)[C@H](NC(=O)[C@H](C)NC(=O)[C@H](CCC(N)=O)NC(=O)[C@@H]1CCCN1C(=O)[C@H](C)NC(=O)[C@@H](NC(=O)[C@H](CCCCN)NC(=O)[C@@H]1CCCN1C(=O)[C@H](Cc1ccccc1)NC(=O)[C@H](CC(C)C)NC(=O)[C@H](CC(N)=O)NC(=O)[C@H](CC(=O)O)NC(=O)CNC(=O)[C@H](CC(=O)O)NC(=O)[C@H](CC(C)C)NC(=O)[C@@H](NC(=O)[C@H](Cc1ccccc1)NC(=O)[C@H](C)NC(=O)[C@H](CCCCN)NC(=O)[C@H](Cc1ccccc1)NC(=O)[C@H](CC(C)C)NC(=O)[C@H](CCCNC(=N)N)NC(=O)[C@H](C)NC(=O)[C@H](C)NC(=O)[C@@H]1CCCN1C(=O)[C@@H](NC(=O)[C@@H](NC(=O)[C@H](CO)NC(=O)[C@@H](NC(=O)[C@@H](NC(=O)[C@H](CCC(=O)O)NC(=O)[C@@H](NC(=O)[C@H](CCC(=O)O)NC(=O)[C@H](Cc1ccc(O)cc1)NC(=O)[C@H](CC(N)=O)NC(=O)[C@H](Cc1ccccc1)NC(=O)[C@@H](NC(=O)CN)C(C)C)[C@@H](C)O)[C@@H](C)O)[C@@H](C)O)C(C)C)[C@@H](C)CC)[C@@H](C)CC)C(C)C)C(=O)N[C@@H](CO)C(=O)N[C@@H](CO)C(=O)N[C@H](C(=O)N[C@@H](CCC(=O)O)C(=O)N[C@@H](CC(N)=O)C(=O)N[C@H](C(=O)N[C@@H](CCC(=O)O)C(=O)NCC(=O)N[C@@H](CC(N)=O)C(=O)NCC(=O)NCC(=O)O)[C@@H](C)CC)C(C)C` [AllerT1] the value was 0.

B1: AllerT4: SEQ ID NO: 4, aa 2-85 of SEQ ID 9 (Bet v 1) contiguous overlapping peptide (peptide)
chain: GVFNYETETTSVIPAARLFKAFILDGDNLFPKVAPQAISSVENIEGNGGPGTIKKISFPEGFPFKYVKDRVDEVDHTNFKYNYS
Consider B1, for which the “competition with Bet v 1 for IgE binding / residual IgE binding” value in the series on Bet v 1 specific IgE is recorded as “do not show such binding”. In addition, the “competition for IgE binding to coated r Bet v 1” value (from here on “competition for IgE binding”) in the series on Bet v 1 specific IgE (FIG. 1) is on record as “comparable result”. Also, the “Positive skin reactions (subjects)” value in series [2] (setting [4]), in series [2] (dilution 1:10) and in series [2] (dilution 1:100) was 0 in each case. In addition, the “Reactivity lower than defined threshold (dubious) (subjects)” value (“Reactivity lower than defined threshold” below) in series [2] (dilution 1:1, weal below 4 mm) was 0; in series [2] (dilution 1:10), 0; in series [2] (dilution 1:100) it was 1.

B2: r Bet v 1: Purified recombinant Bet v 1, birch pollen major allergen, purchased from BIOMAY; SEQ ID 9, Swissprot P15494 (protein)
chain: MGVFNYETETTSVIPAARLFKAFILDGDNLFPKVAPQAISSVENIEGNGGPGTIKKISFPEGFPFKYVKDRVDEVDHTNFKYNYSVIEGGPIGDTLEKISNEIKIVATPDGGSILKISNKYHTKGDHEVKAEQVKASKEMGETLLRAVESYLLAHSDAYN
For B2, the “basophil degranulation (IgE-positive cells expressing CD63)” value in series [3] is “concentration dependent manner”. Also, the IC50 at Bet v 1 specific IgE (depending on the serum of the donor, FIG. 1, read-out: concentration competing with IgE present in the sera (50% inhibition)) is 0.0001 to 10 µM. For the same molecule, in series [2] (birch pollen extract 100,000 SQ, recombinant Bet v 1 1 μM), the SPT result is given as “positive in all volunteers”. Moreover, the “Positive skin reactions (subjects)” value is recorded as 20 in series [2] (setting [4]), 16 in series [2] (dilution 1:10) and 2 in series [2] (dilution 1:100).

B3: AllerT5: SEQ ID NO: 5, aa 65-160 of SEQ ID 9 (Bet v 1) contiguous overlapping peptide (peptide)
chain: FKYVKDRVDEVDHTNFKYNYSVIEGGPIGDTLEKISNEIKIVATPDGGSILKISNKYHTKGDHEVKAEQVKASKEMGETLLRAVESYLLAHSDAYN
With B3, the “competition with Bet v 1 for IgE binding / residual IgE binding” value in the series on Bet v 1 specific IgE is reported as “do not show such binding”. The “competition for IgE binding” value in the series on Bet v 1 specific IgE (FIG. 1) was “comparable result”. The “Positive skin reactions (subjects)” value in series [2] (setting [4]), in series [2] (dilution 1:10) and in series [2] (dilution 1:100) was 0 each time. The “Reactivity lower than defined threshold” value turned out to be 1 in series [2] (dilution 1:1, weal below 4 mm); 0 in series [2] (dilution 1:10); 0 in series [2] (dilution 1:100).

B4: AllerT2: SEQ ID NO: 2, aa 48-118 of SEQ ID 9 (Bet v 1) contiguous overlapping peptide (peptide)
chain: NGGPGTIKKISFPEGFPFKYVKDRVDEVDHTNFKYNYSVIEGGPIGDTLEKISNEIKIVATPDGGSILKIS
On to B4, for which the “competition for IgE binding” value with Bet v 1 specific IgE (FIG. 1) is listed as “no competition”. The “Positive skin reactions (subjects)” value in series [2] (setting [4]), in series [2] (dilution 1:10) and in series [2] (dilution 1:100) was 0 each time. The “Reactivity lower than defined threshold” value in series [2] (dilution 1:1, weal below 4 mm) is listed as 0; in series [2] (dilution 1:10), 0; in series [2] (dilution 1:100), 0.
